Laboratory results from doi:10.1101/2024.04.26.591257 (bioRxiv, 2024).
Values belong to the molecule of their own block, whether it stands above or below them.

Experiments:
[1] = molecular target: BRAVO-mV (BRASSINOSTEROIDS AT VASCULAR AND ORGANIZING CENTRE fused to mVenus) (Arabidopsis thaliana) (UniProt Q6R053); assay: FRET or BRET
[2] = molecular target: WOX5-mV(N)/PLT3-mV(C) heterodimer (split mVenus donor) (Arabidopsis thaliana) (UniProt Q8H1D2); assay: split reporter
[3] = molecular target: T1, BRAVO-mV (BRASSINOSTEROIDS AT VASCULAR AND ORGANIZING CENTRE fused to mVenus) (Arabidopsis thaliana, UniProt Q6R053 1-323); assay: FRET or BRET
T1 sequence (looked up): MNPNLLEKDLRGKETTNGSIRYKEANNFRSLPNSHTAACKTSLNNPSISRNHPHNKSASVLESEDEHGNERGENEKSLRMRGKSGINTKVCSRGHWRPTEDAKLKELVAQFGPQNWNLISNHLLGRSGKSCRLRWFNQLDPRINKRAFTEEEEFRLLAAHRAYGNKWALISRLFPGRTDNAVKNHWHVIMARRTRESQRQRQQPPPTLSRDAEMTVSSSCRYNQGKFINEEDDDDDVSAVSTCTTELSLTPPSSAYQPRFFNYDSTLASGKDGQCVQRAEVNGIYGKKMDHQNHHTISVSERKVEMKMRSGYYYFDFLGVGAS

[4] = molecular target: T2, BRAVO-mV(N)/PLT3-mV(C) heterodimer (split mVenus donor) (Arabidopsis thaliana, UniProt Q6R053 1-323; Q52QU2 1-581); assay: split reporter
T2 sequence (looked up) 1: T1 sequence (looked up)
T2 sequence (looked up) 2: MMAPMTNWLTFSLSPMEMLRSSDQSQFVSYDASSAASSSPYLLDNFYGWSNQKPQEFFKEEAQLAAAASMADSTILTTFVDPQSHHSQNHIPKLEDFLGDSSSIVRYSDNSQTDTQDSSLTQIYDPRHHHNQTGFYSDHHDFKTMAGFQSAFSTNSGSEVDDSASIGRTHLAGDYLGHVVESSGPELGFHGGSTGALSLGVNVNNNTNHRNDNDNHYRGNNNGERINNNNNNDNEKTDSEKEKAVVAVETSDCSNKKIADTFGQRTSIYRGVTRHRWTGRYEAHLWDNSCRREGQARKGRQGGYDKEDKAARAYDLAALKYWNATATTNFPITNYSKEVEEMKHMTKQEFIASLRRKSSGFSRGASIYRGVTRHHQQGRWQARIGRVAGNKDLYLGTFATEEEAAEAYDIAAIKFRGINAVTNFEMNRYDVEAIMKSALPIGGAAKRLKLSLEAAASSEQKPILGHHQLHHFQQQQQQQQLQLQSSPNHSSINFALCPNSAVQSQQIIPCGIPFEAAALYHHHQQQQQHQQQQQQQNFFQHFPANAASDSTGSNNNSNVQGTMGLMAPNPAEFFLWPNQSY

[5] = molecular target: T3, TPL-mV (TOPLESS fused to mVenus) (Arabidopsis thaliana, UniProt Q94AI7 1-1131); assay: FRET or BRET
T3 sequence (looked up): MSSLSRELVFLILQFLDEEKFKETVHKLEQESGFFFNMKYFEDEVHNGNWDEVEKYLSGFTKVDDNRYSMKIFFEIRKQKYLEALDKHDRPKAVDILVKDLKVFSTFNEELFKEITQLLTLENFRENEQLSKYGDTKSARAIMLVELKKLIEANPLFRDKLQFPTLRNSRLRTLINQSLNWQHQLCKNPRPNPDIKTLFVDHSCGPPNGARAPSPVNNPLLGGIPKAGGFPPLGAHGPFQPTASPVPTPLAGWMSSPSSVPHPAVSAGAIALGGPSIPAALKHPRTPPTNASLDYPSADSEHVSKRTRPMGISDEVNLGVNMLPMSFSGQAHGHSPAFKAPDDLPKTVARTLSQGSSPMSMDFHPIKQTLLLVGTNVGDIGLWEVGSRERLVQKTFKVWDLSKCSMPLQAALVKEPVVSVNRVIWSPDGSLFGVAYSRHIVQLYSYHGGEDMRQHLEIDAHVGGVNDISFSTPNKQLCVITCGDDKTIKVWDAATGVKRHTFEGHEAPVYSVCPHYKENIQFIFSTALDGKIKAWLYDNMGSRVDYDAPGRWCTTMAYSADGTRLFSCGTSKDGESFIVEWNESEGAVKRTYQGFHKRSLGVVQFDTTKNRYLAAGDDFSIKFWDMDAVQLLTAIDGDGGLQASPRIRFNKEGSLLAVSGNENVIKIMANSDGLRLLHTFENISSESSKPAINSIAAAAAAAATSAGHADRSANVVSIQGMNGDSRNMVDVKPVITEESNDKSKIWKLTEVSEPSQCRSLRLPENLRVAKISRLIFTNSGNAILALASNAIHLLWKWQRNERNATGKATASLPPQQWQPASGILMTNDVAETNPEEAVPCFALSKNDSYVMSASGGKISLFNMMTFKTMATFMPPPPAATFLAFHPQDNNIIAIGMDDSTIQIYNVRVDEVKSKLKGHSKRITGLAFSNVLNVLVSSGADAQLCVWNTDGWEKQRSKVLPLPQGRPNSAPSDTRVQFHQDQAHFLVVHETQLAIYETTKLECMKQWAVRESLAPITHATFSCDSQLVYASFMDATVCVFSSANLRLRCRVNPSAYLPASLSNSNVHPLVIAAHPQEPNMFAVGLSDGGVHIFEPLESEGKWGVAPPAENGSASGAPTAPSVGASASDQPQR

[6] = molecular target: BES1D-mV (BES1D fused to mVenus) (Arabidopsis thaliana) (UniProt Q9LN63); assay: FRET or BRET
Sequence of BES1D-mV (BES1D fused to mVenus) (Arabidopsis thaliana) (Q9LN63 whole entry, the tested form may be a part): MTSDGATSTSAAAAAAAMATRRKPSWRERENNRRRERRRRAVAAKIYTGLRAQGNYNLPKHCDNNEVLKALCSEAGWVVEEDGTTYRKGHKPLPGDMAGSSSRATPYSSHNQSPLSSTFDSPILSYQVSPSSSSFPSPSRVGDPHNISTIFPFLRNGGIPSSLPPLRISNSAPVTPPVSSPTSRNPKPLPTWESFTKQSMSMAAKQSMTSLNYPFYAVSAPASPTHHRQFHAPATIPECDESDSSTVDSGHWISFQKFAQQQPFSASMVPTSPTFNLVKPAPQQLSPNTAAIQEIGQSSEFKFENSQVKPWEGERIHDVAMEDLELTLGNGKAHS

[7] = molecular target: T4, WOX5-mV(N)/PLT3-mV(C) heterodimer (split mVenus donor) (Arabidopsis thaliana, UniProt Q8H1D2 1-182; Q52QU2 1-581); assay: split reporter
T4 sequence (looked up) 1: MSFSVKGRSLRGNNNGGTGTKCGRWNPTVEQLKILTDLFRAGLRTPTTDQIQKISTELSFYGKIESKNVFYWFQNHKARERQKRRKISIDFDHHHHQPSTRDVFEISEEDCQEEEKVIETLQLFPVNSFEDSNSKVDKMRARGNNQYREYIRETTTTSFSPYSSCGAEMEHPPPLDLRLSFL
T4 sequence (looked up) 2: T2 sequence (looked up) 2

binding [%] (FRET-FLIM) [1]: 11.7%
Molecule: PLT3ΔPrD-mCh (PLT3 with its prion-like domains deleted, fused to mCherry) (from UniProt Q9ZNS0 1-508) (natural protein)

binding [%] (FRET-FLIM) [1]: 27.4% | binding [%] (BiFC-FRET) [2]: 18.7%
Molecule: BES1D-mCh (BRI1-EMS-SUPPRESSOR 1, BES1D form, fused to mCherry) (from UniProt Q9LN63 1-335) (natural protein)

binding [%] (FRET-FLIM) [3]: 22.4 ± 14.1% | binding [%] (BiFC-FRET) [4]: 29.8 ± 10.6%
B1: WOX5-mCh (WUSCHEL-RELATED HOMEOBOX 5 fused to mCherry) (natural protein, Arabidopsis thaliana, UniProt Q8H1D2 1-182, looked up)
chain: T4 sequence (looked up) 1

binding [%] (FRET-FLIM) [5]: 13.5 ± 4.3% | binding [%] (FRET-FLIM) [6]: 16.9%
B2: PLT3-mCh (PLETHORA 3 fused to mCherry) (natural protein, Arabidopsis thaliana, UniProt Q52QU2 1-581, looked up)
chain: T2 sequence (looked up) 2

binding [%] (FRET-FLIM) [3]: 26.7 ± 9.8% | binding [%] (BiFC-FRET) [7]: 23.3 ± 8.3% | binding [%] (BiFC-FRET) [4]: 21.1 ± 8.3%
B3: TPL-mCh (TOPLESS fused to mCherry) (natural protein, Arabidopsis thaliana, UniProt Q94AI7 1-1131, looked up)
chain: T3 sequence (looked up)

binding [%] (BiFC-FRET) [7]: 36.3 ± 10.7%
B4: BRAVO-mCh (BRAVO fused to mCherry) (natural protein, Arabidopsis thaliana, UniProt Q6R053 1-323, looked up)
chain: T1 sequence (looked up)
